Where no end group is shown, it is not given here.
How the values were obtained:
Experiment in all cases: MST; protein in a series of gradient dilutions, an equal amount of labeled CP7 peptide added; PBS with 0.05% Tween-20; glass capillary; room temperature; Monolith NT.115
Details in all cases: both partners purified
[1] = molecular target: T1, Human EGFR/HER1/ErbB1 protein (His tag) (human, UniProt P00533 25-645)
T1 construct: human EGFR/HER1/ErbB1, recombinant protein with His tag, Sino Biological 10001-H08H; Check the vendor's data sheet; source: bought: Sino Biological

[2] = molecular target: T2, Human FGFR1/CD331 protein (His tag) (human, UniProt P11362 22-376)
T2 construct: human FGFR1/CD331, recombinant protein with His tag, Sino Biological 10616-H08H; Check the vendor's data sheet; source: bought: Sino Biological
T2 sequence (looked up): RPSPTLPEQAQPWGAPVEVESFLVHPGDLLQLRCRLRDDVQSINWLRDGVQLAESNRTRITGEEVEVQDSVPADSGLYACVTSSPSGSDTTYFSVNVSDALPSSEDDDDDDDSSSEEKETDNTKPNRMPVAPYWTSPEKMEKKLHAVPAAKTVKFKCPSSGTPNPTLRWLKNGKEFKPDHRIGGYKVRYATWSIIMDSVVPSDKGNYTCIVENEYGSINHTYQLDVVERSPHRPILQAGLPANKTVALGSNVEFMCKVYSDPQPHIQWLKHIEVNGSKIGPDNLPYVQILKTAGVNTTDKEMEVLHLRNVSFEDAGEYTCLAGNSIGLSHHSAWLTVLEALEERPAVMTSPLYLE

[3] = molecular target: T3, Human VEGFR1/FLT-1 protein (Fc tag) (human, UniProt P17948 27-758)
T3 construct: human VEGFR1/FLT-1, recombinant protein with Fc tag, Sino Biological 10136-H02H; Check the vendor's data sheet; source: bought: Sino Biological
T3 sequence (P17948 27-758): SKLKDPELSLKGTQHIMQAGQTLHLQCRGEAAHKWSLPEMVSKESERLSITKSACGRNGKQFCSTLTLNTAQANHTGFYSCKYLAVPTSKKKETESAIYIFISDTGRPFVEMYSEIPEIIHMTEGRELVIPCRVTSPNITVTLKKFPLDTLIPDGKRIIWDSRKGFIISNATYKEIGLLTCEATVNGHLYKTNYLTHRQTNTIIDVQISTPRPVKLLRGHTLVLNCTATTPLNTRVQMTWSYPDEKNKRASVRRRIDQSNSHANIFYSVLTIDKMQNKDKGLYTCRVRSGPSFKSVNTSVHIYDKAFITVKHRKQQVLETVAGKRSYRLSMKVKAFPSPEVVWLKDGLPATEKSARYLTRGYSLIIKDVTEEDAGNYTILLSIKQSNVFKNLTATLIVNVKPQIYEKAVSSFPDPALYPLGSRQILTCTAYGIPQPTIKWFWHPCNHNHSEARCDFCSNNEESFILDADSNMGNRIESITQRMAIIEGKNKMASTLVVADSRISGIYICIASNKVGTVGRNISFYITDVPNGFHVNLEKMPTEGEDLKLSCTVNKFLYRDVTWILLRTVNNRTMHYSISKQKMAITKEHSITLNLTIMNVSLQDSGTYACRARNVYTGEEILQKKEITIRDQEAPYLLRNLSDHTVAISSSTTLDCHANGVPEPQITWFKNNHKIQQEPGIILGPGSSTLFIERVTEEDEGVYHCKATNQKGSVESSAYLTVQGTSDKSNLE

B1: CP7 peptide (CIQPFYP) (peptide)
peptide: CIQPFYP
modifications: also: labelled, label not named
notes: novel peptide designed and screened by the authors' group; The methods of the MST say only 'the labeled peptide'; source: synthetic peptide: Shanghai GL Biochem Peptide Ltd
- Kd [1]: 389 nM
- Kd [2]: 22.5 nM
- Kd [3]: 66.1 nM

From article PMC9369135, “An FGFR1-Binding Peptide Modified Liposome for siRNA Delivery in Lung Cancer” (International Journal of Molecular Sciences, 2022)
